According to paper PMC8633249:

Assays:
[1] = biological target: AGL55, 55-mer A-domain peptide of PAM_(NS88.2) (Streptococcus pyogenes (GAS isolate NS88.2)); test: SEC-MALS; K2hPg/AGL55 mixture on a Wyatt 030S5 column, UV, RI and MALS detection, protein conjugate analysis; 50 mM Na-phosphate/100 mM NaCl, pH 7.4; 25°C
[2] = biological target: AGL55, 55-mer A-domain peptide of PAM_(NS88.2) (Streptococcus pyogenes (GAS isolate NS88.2)); test: ITC; K2hPg (syringe) titrated into AGL55 (30 µM, cell); 50 mM sodium phosphate/100 mM NaCl, pH 7.4; 4°C; hetero-association model A + B (Sedphat)
[3] = biological target: PAM_(NS88.2), plasminogen-binding Group A streptococcal M-protein from GAS isolate NS88.2 (Streptococcus pyogenes (GAS isolate NS88.2)); test: ITC; K2hPg (syringe) titrated into PAM_(NS88.2) (6 µM as monomer, cell); 50 mM sodium phosphate/100 mM NaCl, pH 7.4; 37°C; hetero-association model (Sedphat)
[4] = biological target: PAM_(NS88.2), plasminogen-binding Group A streptococcal M-protein from GAS isolate NS88.2 (Streptococcus pyogenes (GAS isolate NS88.2)); test: AUC; sedimentation equilibrium of the K2hPg/PAM_(NS88.2) complex isolated by gel filtration, at the temperature of its isolation (4°C, 25°C, 37°C); 50 mM sodium phosphate/100 mM NaCl, pH 7.4
[5] = biological target: AGL55, 55-mer A-domain peptide of PAM_(NS88.2) (Streptococcus pyogenes (GAS isolate NS88.2)); test: ITC; K2hPg (syringe) titrated into AGL55 (30 µM, cell); 50 mM sodium phosphate/100 mM NaCl, pH 7.4; 37°C; hetero-association model A + B (Sedphat)
[6] = biological target: PAM_(NS88.2), plasminogen-binding Group A streptococcal M-protein from GAS isolate NS88.2 (Streptococcus pyogenes (GAS isolate NS88.2)); test: ITC; K2hPg (syringe) titrated into PAM_(NS88.2) (6 µM as monomer, cell); 50 mM sodium phosphate/100 mM NaCl, pH 7.4; 4°C; hetero-association model of K2hPg and PAM monomer (Sedphat)
[7] = biological target: PAM_(NS88.2), plasminogen-binding Group A streptococcal M-protein from GAS isolate NS88.2 (Streptococcus pyogenes (GAS isolate NS88.2)); test: ITC; K2hPg (syringe) titrated into PAM_(NS88.2) (6 µM as monomer, cell); 50 mM sodium phosphate/100 mM NaCl, pH 7.4; 25°C; only the final inflection fitted, hetero-association model A + B (Sedphat)
[8] = biological target: AGL55, 55-mer A-domain peptide of PAM_(NS88.2) (Streptococcus pyogenes (GAS isolate NS88.2)); test: ITC; K2hPg (syringe) titrated into AGL55 (30 µM, cell); 50 mM sodium phosphate/100 mM NaCl, pH 7.4; 25°C; hetero-association model A + B (Sedphat)
[9] = biological target: PAM_(NS88.2), plasminogen-binding Group A streptococcal M-protein from GAS isolate NS88.2 (Streptococcus pyogenes (GAS isolate NS88.2)); test: AUC; apo-PAM_(NS88.2), sedimentation equilibrium at two rotor speeds (<0.2 mg/ml) and sedimentation velocity (6 µM); 50 mM sodium phosphate/100 mM NaCl, pH 7.4; 4°C, 15°C and 25°C

Row | Substance | stoichiometry N [1] | stoichiometry N [2] | Kd [3] [nM] | dH [3] [kcal/mol] | stoichiometry N [4] | stoichiometry N [5] | Kd [6] [nM] | dH [6] [kcal/mol] | Kd [7] [nM] | stoichiometry N [8] | stoichiometry N [9]
1 | K2hPg, kringle-2 domain of human plasminogen (from UniProt P00747 183-262) (domain or fragment) | 1 m:m | 1 m:m | 181 | -37 | 1 m:m | 1 m:m | 0.7 | -13.7 | 2.7 | 1 m:m | 
2 | PAM_(NS88.2), plasminogen-binding Group A streptococcal M-protein from GAS isolate NS88.2 (natural protein) |  |  |  |  |  |  |  |  |  |  | 2
